From paper doi:10.1101/2023.01.26.525422, “Histone-organized chromatin in bacteria” (bioRxiv, 2023)

T1: Bd0055 (Bdellovibrio bacteriovorus HD100, UniProt Q6MRM1 1-64)
T1 sequence: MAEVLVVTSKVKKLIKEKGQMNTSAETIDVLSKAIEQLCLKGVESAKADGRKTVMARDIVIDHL

B1: 35 bp DNA (dsDNA)
DNA 1: TCTTGCACTAAGAGCTACTGGAGTGCGTCAGATGT
DNA 2: ACATCTGACGCACTCCAGTAGCTCTTAGTGCAAGA
B2: Bd0055, Bdellovibrio bacteriovorus histone (natural protein, Bdellovibrio bacteriovorus HD100, UniProt Q6MRM1 1-64, looked up)
chain: MAEVLVVTSKVKKLIKEKGQMNTSAETIDVLSKAIEQLCLKGVESAKADGRKTVMARDIVIDHL
notes: Bd0055, singlet histone fold protein of Bdellovibrio bacteriovorus HD100; the ORF was expressed; No tag is mentioned; purified by ion exchange, heparin and size exclusion; also called wildtype Bd0055; B. bacteriovorus histone; source: E. coli, codon-optimized ORF in a pET vector, purified (SP HP, Heparin HP, S75)

Assays:
Bd0055 = biological target: T1, Bd0055; assay: X-ray crystallography; 10 mM NaCl, 0.1 mM EDTA, 50 mM HEPES pH 7.5; 16:1 protein to DNA; 1 dimer per 2.5 bp; FP/FRET: 10 nM DNA, 10 mM NaCl, 1 mM EDTA, 50 mM HEPES pH 6, RT; EMSA: 1 uM DNA, 10 mM NaCl, 1 mM EDTA, 50 mM HEPES pH 7.5, RT; conditions: protein: recombinant; chain copies: 2; blunt
[1] = biological target: the molecule itself; assay: crystal structure; apo Bd0055; hanging drop, 3.2 M (NH4)2SO4, 100 mM BICINE pH 9; 1.8 Å

| Binder | binding result (Bd0055) | stoichiometry N [1] |
| --- | --- | --- |
| B1 | binds |  |
| B2 |  | 2 |
